From paper PMC8571082

How the values were obtained:
[1] = biological target: T1, factor inhibiting HIF-1 (FIH-1), full-length (human), Q9NWT6; assay: SEC-MALS; FIH-1 alone at 70 μM, 50 μl on Superdex 200 10/300 GL; 35 mM Na-phosphate pH 7.5, 300 mM NaCl, 500 μM αKG; settings: remark: other sources report otherwise
[2] = biological target: T1, factor inhibiting HIF-1 (FIH-1), …; assay: SEC; FIH-1 alone, wild type at ~7 μM; profiles of FIH-1 WT and L340R; settings: remark: other sources report otherwise

stoichiometry N [1]: 2
stoichiometry N [2]: 2
B1: factor inhibiting HIF-1 (FIH-1), full-length, Q9NWT6 1-349 (enzyme)
chain: MAATAAEAVASGSGEPREEAGALGPAWDESQLRSYSFPTRPIPRLSQSDPRAEELIENEEPVVLTDTNLVYPALKWDLEYLQENIGNGDFSVYSASTHKFLYYDEKKMANFQNFKPRSNREEMKFHEFVEKLQDIQQRGGEERLYLQQTLNDTVGRKIVMDFLGFNWNWINKQQGKRGWGQLTSNLLLIGMEGNVTPAHYDEQQNFFAQIKGYKRCILFPPDQFECLYPYPVHHPCDRQSQVDFDNPDYERFPNFQNVVGYETVVGPGDVLYIPMYWWHHIESLLNGGITITVNFWYKGAPTPKRIEYPLKAHQKVAIMRNIEKMLGEALGNPQEVGPLLNTMIKGRYN
